{"source": "patent US20200223903A1", "about": "(NEOMATRIX THERAPEUTICS, published 2020)", "binders": {"B1": {"name": "P12 (PSHISKYILRWRPK), 14-residue peptide of fibronectin's first type III repeat (peptide)", "peptide": "PSHISKYILRWRPK", "notes": "Linear P12 as named in the SPR paragraph"}, "B2": {"name": "P46 (HISKYILRWRPKNSV), fibronectin-derived peptide (peptide)", "peptide": "HISKYILRWRPKNSV", "notes": "Found as an elastase digestion product of FNIII1-C and then synthesized; Linear"}}, "data": [{"molecular_target": "T1, epidermal growth factor (UniProt P01133 971-1023)", "T1 construct": "also called EGF", "T1 sequence (P01133 971-1023 limits assumed)": "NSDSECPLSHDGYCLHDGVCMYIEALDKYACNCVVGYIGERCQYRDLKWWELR", "assay": "SPR (Biacore T200), real time interaction of peptide with growth factor", "method": "(§1) To study the binding activities of these peptides, real time interactions of P12, P46, and cNP8 with growth factors were determined by plasmon surface resonance (Biacore T200).", "values": [{"binder": "B1", "binding result": "no binding"}, {"binder": "B2", "binding result": "no binding"}, {"binder": "HIGKYGLRWRPKGSV (cyclic: N terminus amino acid bound to the C terminus amino acid, also called cyclic NP8)", "note": "[cNP8, cyclic HIGKYGLRWRPKGSV, elastase-resistant engineered peptide derived from P46]", "binding result": "no binding"}]}, {"molecular_target": "T2, insulin-like growth factor-1 (UniProt P05019 49-118)", "T2 construct": "also called IGF-1", "T2 sequence (P05019 49-118 limits assumed)": "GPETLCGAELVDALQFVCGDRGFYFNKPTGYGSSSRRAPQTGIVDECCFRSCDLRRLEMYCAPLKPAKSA", "assay": "SPR (Biacore T200), real time interaction of peptide with growth factor", "method": "as §1", "values": [{"binder": "B1", "binding result": "no binding"}, {"binder": "B2", "binding result": "no binding"}, {"binder": "HIGKYGLRWRPKGSV (cyclic: N terminus amino acid bound to the C terminus amino acid, also called cyclic NP8)", "note": "[cNP8, cyclic HIGKYGLRWRPKGSV, elastase-resistant engineered peptide derived from P46]", "binding result": "no binding"}]}]}
